Measured values published in patent US9750814B2, “Polypeptides to inhibit epstein barr viral protein BHRF1 and B cell lymphoma family proteins” (priority 2014, dated 2017).
Numbering of substitutions follows the chain as printed. Names may count otherwise.

T1: Bfl-1 (Homo sapiens, UniProt Q16548, C4S)
T1 sequence (Q16548 1-153 C4S): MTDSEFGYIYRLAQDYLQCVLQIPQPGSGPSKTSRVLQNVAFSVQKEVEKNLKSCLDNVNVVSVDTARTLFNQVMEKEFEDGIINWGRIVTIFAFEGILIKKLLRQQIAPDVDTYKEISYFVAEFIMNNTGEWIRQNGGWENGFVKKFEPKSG

T2: Bcl-B (Homo sapiens, UniProt Q9HD36)
T2 construct: Bcl-B a.a; 11-175 (NP_065129.1); made in house; host or cells: E. coli BL21* (DE3)
T2 sequence (Q9HD36 11-175): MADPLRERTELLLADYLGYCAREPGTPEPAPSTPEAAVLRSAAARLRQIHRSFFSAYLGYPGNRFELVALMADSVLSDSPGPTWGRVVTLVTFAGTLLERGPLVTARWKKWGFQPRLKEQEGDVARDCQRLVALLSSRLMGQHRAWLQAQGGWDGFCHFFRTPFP

B1: M-CDP05: SEQ ID NO: 32; target Mcl-1 (protein)
chain: ADPKKVLDKAKDQAENRVRELKQKLEELYKEARKLDLTQEERHRLETKALSALLAAIGDILDAIMQALQEAAKLKKAGLVNSQQLDELKRRLEELRKEASRKARDYGREFWLKLDY
B2: FINDI: SEQ ID NO: 6; target Bfl-1 (protein)
chain: ADPKKVLDKAKDQAENRVRELKQKLEELYKEARKLDLTQEKRKKLEVATLGAVLAAHGDILNAIMQAKEEADKLKKAGLVNSQQLDELKRRLEELKEEALRKASDYGNEFHLKRRY
B3: X-CDP07: SEQ ID NO: 47; target Bcl-xL (protein)
chain: ADPKKVLDKAKDRAENVVRKLKKELEELYKEARKLDLTQEMRDRIRLAAIAARIAAFGDIFHAIMEALEEARKLKKAGLVNSQQLDELKRRLEELDEEAAQRAEKLGKEFELKLEY
B4: 2-INDI: SEQ ID NO: 3; target Bcl-2 (protein)
chain: ADPKKVLDKAKDEAENRVRELKQRLEELYKEARKLDLTQEMRQELVDKARAASLQANGDIFYAILRALAEAEKLKKAGLVNSQQLDELKRRLEELAEEARRKAEKLRDEFRLKLEY
B5: WINDI: SEQ ID NO: 265; target Bcl-w (protein)
chain: DPKKVFDELKDRAENNVRRLKQKLEELYKEARKKDLTQEEREKLKTKYKTAMQLAALAAEGDIMNALLKARKLHKNGQVNEQQLEELARRLMELAKEAFQKAKDYANEFKYKLEY
B6: BbpD04.2: BbpD04.1 with four mutations: I21L, Q79L, I84Q and H104R (protein)
chain: ADWKKVLDKAKDIAENRVRELKQKLEEFYKEAMKLDLTQEMRRKLMLRWIAAMLMAIGDIFNAIRQAKQEADKLKKAGLVNSQQLDELKRRLEELKEEASRKCRDYGREFQLKLEY
B7: BINDI N62S: BINDI variant with N62S (protein)
chain: B6 chain with W3P, I13Q, F28L, M33R, M46E, W49Y, F61Y, N62S, C103A
B8: XINDI: SEQ ID NO: 4; target Bcl-XL (protein)
chain: ADPKKVLDKAKDRAENVVRKLKKELEELYKEARKLDLTQEMRDRIRRTAIAARFQAHGDIFHAIKHAKEEARKLKKAGLVNSQQLDELKRRLRELDEEAEQRAEKLGKEFRLKLEY
B9: M-CDP02: SEQ ID NO: 29; target Mcl-1 (protein)
chain: ADPKKVLDKAKDQAENRVRELKQELEELYKEARKLDLTQEERRKLEESYIAAMLRAIGDIFNAIMQAKNEADKLKKAGLVNSQQLDELRRRLEELRKEASLKAEDYGREFQEKLEY

Experiments:
[1] = type: physicochemical; conditions: for unfolding behaviour in guanidinium hydrochloride: loss of CD signal at 222 nm
Procedure: CD spectra were recorded with a Model 420 spectrometer (AVIV Biomedical) or a J-1500 Circular Dichroism Spectrometer (JASCO). Unless stated otherwise, proteins were at 20 μM in PBS and data were collected at 25° C.

Bfl-1-dependent MEF line = assay: Long-term survival (colony) assay, Bfl-1-dependent MEFs; type: cell-based, mouse; conditions: seven day colony survival, doxycycline-induced expression
Source text: Mouse embryonic fibroblasts were generated from E13-E14.5 embryos derived from CreERT2/Bcl-x^fl/fl/Mcl-I^fl/fl C57BL/6 mice (Kelly et al., 2014) and immortalized (at passage 2-4) with SV40 large T antigen. Retroviral expression constructs in the pMIG vector (Murine Stem Cell Virus-IRES-GFP) expressing each FLAG-tagged pro-survival protein were transiently transfected using LIPOFECTAMINE™ (Invitrogen), into Phoenix ecotropic packaging cells. Filtered virus-containing supernatants were used to infect the MEFs by spin inoculation as previously described (Lee et al., 2008). Cells stably expressing each pro-survival protein were selected by sorting GFP^+ve cells 24 hours after spin inoculation and protein expression verified by Western blotting using an anti-FLAG antibody. Following verification of exogenous pro-survival protein expression, each cell line was treated with 1 μM Tamoxifen (Sigma-Aldrich) to enable deletion of endogenous Mcl-1 and Bcl-xL. Deletion of endogenous Mcl-1 and Bcl-xL was shown by Western blotting using anti-Mcl-1 (Rockland Clone, 600-401-394) and anti-Bcl-xL (BD Transduction Laboratories Clone 44/Bcl-x) antibodies. Cells were maintained in DME Kelso medium supplemented with 10% (v/v) fetal bovine serum, 250 mM L-asparagine and […] 2-mercaptoethanol.
Inducible αMCL1 and αBFL1 constructs were generated in a lentiviral vector described in Aubrey et al. (2015). […]

colon cancer cell lines = assay: Long-term survival assay, colon cancer cell lines; type: cell-based, human; conditions: long-term survival assay
Procedure: Inducible αMCL1 and αBFL1 constructs were generated in a lentiviral vector described in Aubrey et al. (2015). Ligand expression is linked via the T2A peptide to mCherry™ fluorescent reporter protein. […] Viral supernatants were then filtered prior to target cell transduction. […] For infection of MEFs and colon cancer cell lines, equal volume of virus-containing supernatant was added to target cells pre-incubated with 10 ng/μL polybrene, and centrifuged at 2500 rpm for 2 hours at 32° C. Following spin inoculation, cells were then incubated overnight at 37° C. Cells expressing the doxycycline-inducible constructs were then selected by sorting mCherry^+ve cells. MEFs were maintained in DME Kelso medium supplemented with 10% (v/v) FBS, 250 mM L-asparagine and […] 2-mercaptoethanol. Colon cancer cell lines were maintained in DMEM/F-12 supplemented with 10% (v/v) FBS.
MEF and colon cancers were seeded in 6-well tissue culture plates in 2 mL culture media at 150 cells per mL. The next day and every 48 hours following, doxycycline was added at a final concentration of 1 μg/mL to each well, while nothing was added to control wells.

Bfl-1 = target: T1, Bfl-1; assay: Bio-layer interferometry (BLI), immobilized Bfl-1; type: binding; set-up: Bfl-1 a.a; made in house; host or cells: E. coli BL21* (DE3); conditions: lower bound in μM
Source text: (§1) 11-175 (NP_065129.1), Mcl-1 a.a. […] For later BLI analysis, Bcl-B and Bfl-1 were genetically fused to C-terminal maltose-binding-protein with an avi-6his tag for improved solution properties. Codon usage was optimized for E. coli expression. […] The genes for individually-tested designed proteins were assembled from oligos (Hoover and Lubkowski, 2002) and cloned into pET29b (NdeI-XhoI sites) with C-terminal 6his tags for purification from E. coli, or cloned into PETCON (NdeI-XhoI sites; (Fleishman et al., 2011)) for yeast surface expression. Alternative tags were added using PCR methods. Point mutations were made by overlapping PCR (Procko et al., 2013). Error-prone PCR with an average error rate of 1.3 amino acid substitutions per clone used GeneMorph II Random Mutagenesis (Agilent Technologies).
(§2) Purified avi-6his-tagged ligands (20 μM) in reaction buffer (250 mM potassium glutamate, 20 mM Tris-Cl [pH 7.5], 50 mM bicine [pH 8.3], 10 mM ATP, 10 mM MgOAc, 100 μM d-biotin) were enzymatically biotinylated with 150 U/μl BirA (Avidity) at room temperature overnight, followed by purification with NiNTA-agarose and SEC. Biotinylated ligands were stored at 4° C. in 150 mM NaCl, 20 mM Tris-Cl (pH 7.5), 1 mM DTT, 0.02% sodium azide.
(§3) Data were collected on an Octet RED96 (Forte Bio) and processed using the instrument's integrated software. […] Biosensors were dipped in solutions containing the analyte of interest to measure association, and transferred back to empty binding buffer for monitoring dissociation. Kinetic constants were determined from the mathematical fit of a 1:1 binding model.

Bcl-2 = target: T3, Bcl-2 (Homo sapiens, UniProt P10415); assay: Bio-layer interferometry (BLI), immobilized Bcl-2; type: binding
T3 construct: human Bcl-2 a.a; made in house; host or cells: E. coli BL21* (DE3)
T3 sequence (P10415 1-207): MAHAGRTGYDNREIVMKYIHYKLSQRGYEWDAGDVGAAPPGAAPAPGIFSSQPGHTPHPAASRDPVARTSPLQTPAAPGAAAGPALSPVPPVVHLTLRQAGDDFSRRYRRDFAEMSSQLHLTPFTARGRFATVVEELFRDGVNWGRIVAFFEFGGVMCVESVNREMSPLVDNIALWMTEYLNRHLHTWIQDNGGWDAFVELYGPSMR
Source text: as §1
as §2, with “Biotinylated ligands were stored at 4° C. in 150 mM NaCl, 20 mM Tris-Cl (pH 7.5), 1 mM DTT, 0.02% sodium azide.” left out
Data were collected on an Octet RED96 (Forte Bio) and processed using the instrument's integrated software. […] Kinetic constants were determined from the mathematical fit of a 1:1 binding model.

Bcl-B = target: T2, Bcl-B; assay: Bio-layer interferometry (BLI), immobilized Bcl-B; type: binding; conditions: lower bound in μM
Source text: as §1, §2, §3

Mcl-1 = target: T4, Mcl-1 (Homo sapiens, UniProt Q07820); assay: Bio-layer interferometry (BLI), immobilized Mcl-1; type: binding; conditions: BLI; for Kd: lower bound in μM
T4 construct: Mcl-1 a.a; made in house; host or cells: E. coli BL21* (DE3)
T4 sequence (Q07820 172-327): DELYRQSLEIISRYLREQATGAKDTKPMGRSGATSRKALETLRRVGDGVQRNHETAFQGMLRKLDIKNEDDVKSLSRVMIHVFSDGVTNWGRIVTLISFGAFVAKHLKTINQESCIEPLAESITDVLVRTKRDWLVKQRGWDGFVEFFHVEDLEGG
Source text: as §1, §2, §3

BHRF1 = BHRF1 (Epstein-Barr virus, UniProt P03182)
Sequence of BHRF1 (P03182 1-161): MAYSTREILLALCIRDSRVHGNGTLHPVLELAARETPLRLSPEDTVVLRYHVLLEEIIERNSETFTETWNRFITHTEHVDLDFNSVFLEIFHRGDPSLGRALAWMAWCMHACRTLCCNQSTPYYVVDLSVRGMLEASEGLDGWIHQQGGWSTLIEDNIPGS
Procedure: Proteins (20 nmol each) were injected in a 200 μl loop in line with a Superdex-75 10/300 column (GE Healthcare) and separated with running buffer (20 mM Tris-Cl pH 7.5, 150 mM NaCl, 1 mM DTT) at room temperature.

[2] = test system: mitochondria from six EBV-positive and four EBV-negative cancer lines; assay: Cytochrome c release from isolated mitochondria, panel of cancer lines; type: cell-based, human; conditions: 10 μM
Procedure: (§4) Cells (˜10^9) were equilibrated in 5 ml of homogenization buffer (0.25 M sucrose, 1 mM EGTA, 10 mM HEPES/NaOH, 0.5% BSA, pH 7.4, Roche Complete protease inhibitors) for 5 min. Samples were kept on ice or at 4° C. until assayed. Cells were homogenized under N2 pressure (400 psi) in a steel disruption vessel (Parr Instrument Company) for 10 min, then centrifuged (750 g) for 10 min to remove intact cells. Supernatant was centrifuged again (12,000 g) for 12 min to collect mitochondria. The pellet was resuspended in 300 μl wash buffer (0.25 M sucrose, 1 mM EDTA, 10 mM Tris/HCl pH 7.4). Proteins at the indicated concentrations were incubated with mitochondria (25 μg mitochondrial protein based on BCA assay, Sigma) in 50 μl final volume of experimental buffer (125 mM KCl, 10 mM Tris-MOPS pH 7.4, 5 mM glutamate, 2.5 mM malate, 1 mM K-PO4, 10 μM EGTA-Tris pH 7.4) for 30 min at room temperature. Reaction solutions were centrifuged (18,000 g) for 10 min at 4° C. and cytochrome c release was quantified using a Cytochrome c ELISA kit (Life Technologies). Complete cytochrome c release was quantified by treatment with 0.5% Triton-X100.
(§5) Ramos, Ramos-AW, Daudi, Raji, DOHH2, JVM-2, and JVM-13 were grown in RPMI 1640 containing L-glutamine and 25 mM HEPES supplemented with 1% penicillin-streptomycin (GIBCO) and 10% fetal bovine serum (FBS, Invitrogen). […]

[3] = test system: mitochondria isolated from Ramos-AW (EBV-positive) and Ramos (EBV-negative) cells; assay: Cytochrome c release from isolated mitochondria, Ramos-AW versus Ramos; type: cell-based, human; conditions: 30 min
Procedure: as §4, §5

Row | Molecule | protein stability relative to the original computational design [1] | Kd (Bfl-1) [µM] | Kd (Bcl-B) [µM] | Kd (Mcl-1) [µM] | further results
1 | B1 | – | – | – | – | unfolding behaviour in guanidinium hydrochloride [1]: unfolded over broad denaturant concentration ranges
2 | B2 | slightly to moderately decreased | – | – | – | decrease in survival (Bfl-1-dependent MEF line): 85±6%; decrease in RKO cell survival (colon cancer cell lines): 63±4%
3 | B3 | – | > 50 | – | – | –
4 | B4 | slightly to moderately decreased | > 75 | > 75 | > 75 | fold weaker affinity for the next tightest binding BCL2 family protein (target Bcl-2) (Bcl-2): > 2,000 fold
5 | B5 | – | > 25 | > 25 | > 25 | –
6 | B6 | – | – | – | – | elution by SEC when mixed with BHRF1 (BHRF1; in solution): higher molecular weight (MW) complex; state by SEC after purification from E. coli (BHRF1; protein alone): monodisperse and monomeric
7 | B7 | – | – | – | – | cytochrome c release ([2]; Raji and JVM-2): low levels of cytochrome c release; cytochrome c release ([2]; Ramos-AW, Daudi, Granta 519, JVM-13): high cytochrome c release; cytochrome c release, Ramos-AW compared with Ramos mitochondria [3]: enhanced apoptotic activity against EBV-positive Ramos-AW; change of affinity for Mcl-1 relative to BINDI (Mcl-1): diminished six-fold
8 | B8 | slightly to moderately decreased | > 50 | > 50 | > 50 | –
9 | B9 | – | – | – | – | unfolding behaviour in guanidinium hydrochloride [1]: unfolded over broad denaturant concentration ranges
